Experimental data as given in the supplement of paper PMC10567573.

B1: CAMK2A (parent)
chain: CIQQILEAVLHCHQMGVVHRDLKP

Variants of: B1
Assay: protein stability index of a GFP-peptide fusion (GPS, HEK-293T) (PSI 1-6); higher = more stable
Details: c terminus: a fixed tail appended
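Note: lentivirally expressed fusions sorted by FACS into six bins by GFP to DsRed ratio, PSI derived from sequencing read proportions per bin multiplied by bin number.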

For CIQQILEAVLHCHQMGLVHRDLKP [V17L], which protein stability index is on record?
The protein stability index was 2.42.

For CIQQILEAVLHCHQMGMVHRDLKP [V17M], which protein stability index is on record?
The protein stability index was 2.44.

For CIQQILEAVLHCHQMGNVHRDLKP [V17N], which protein stability index is on record?
Its protein stability index is 3.21.

Which protein stability index does the source give for CIQQILEAVLHCHQMGPVHRDLKP [V17P] here?
Its protein stability index is 2.65.

For CIQQILEAVLHCHQMGQVHRDLKP [V17Q], which protein stability index is on record?
The protein stability index was 2.79.

With CIQQILEAVLHCHQMGRVHRDLKP [V17R] as the variant, how does the protein stability index read?
Its protein stability index is 3.99.

For CIQQILEAVLHCHQMGTVHRDLKP [V17T], which protein stability index is on record?
Its protein stability index is 3.89.

For CIQQILEAVLHCHQMGYVHRDLKP [V17Y], which protein stability index is on record?
The protein stability index was 3.53.

Which protein stability index does the source give for CIQQILEAVLHCHQMGVAHRDLKP [V18A] here?
Its protein stability index is 2.83.

Which protein stability index does the source give for CIQQILEAVLHCHQMGVCHRDLKP [V18C] here?
Its protein stability index is 2.28.

Which protein stability index does the source give for CIQQILEAVLHCHQMGVDHRDLKP [V18D] here?
Its protein stability index is 2.78.

Which protein stability index does the source give for CIQQILEAVLHCHQMGVEHRDLKP [V18E] here?
Its protein stability index is 1.63.

With CIQQILEAVLHCHQMGVFHRDLKP [V18F] as the variant, how does the protein stability index read?
The protein stability index was 1.78.

For CIQQILEAVLHCHQMGVGHRDLKP [V18G], which protein stability index is on record?
Its protein stability index is 2.31.

For CIQQILEAVLHCHQMGVHHRDLKP [V18H], which protein stability index is on record?
Its protein stability index is 3.82.

For CIQQILEAVLHCHQMGVIHRDLKP [V18I], which protein stability index is on record?
The protein stability index was 2.

With CIQQILEAVLHCHQMGVKHRDLKP [V18K] as the variant, how does the protein stability index read?
Its protein stability index is 2.97.

For CIQQILEAVLHCHQMGVNHRDLKP [V18N], which protein stability index is on record?
The protein stability index was 2.84.

With CIQQILEAVLHCHQMGVPHRDLKP [V18P] as the variant, how does the protein stability index read?
Its protein stability index is 2.35.

With CIQQILEAVLHCHQMGVQHRDLKP [V18Q] as the variant, how does the protein stability index read?
Its protein stability index is 3.46.

With CIQQILEAVLHCHQMGVRHRDLKP [V18R] as the variant, how does the protein stability index read?
Its protein stability index is 1.68.

Which protein stability index does the source give for CIQQILEAVLHCHQMGVSHRDLKP [V18S] here?
The protein stability index was 1.92.

For CIQQILEAVLHCHQMGVTHRDLKP [V18T], which protein stability index is on record?
The protein stability index was 2.33.

For CIQQILEAVLHCHQMGVYHRDLKP [V18Y], which protein stability index is on record?
Its protein stability index is 2.35.

Which protein stability index does the source give for CIQQILEAVLHCHQMGVVCRDLKP [H19C] here?
The protein stability index was 1.84.

For CIQQILEAVLHCHQMGVVDRDLKP [H19D], which protein stability index is on record?
The protein stability index was 2.72.

For CIQQILEAVLHCHQMGVVERDLKP [H19E], which protein stability index is on record?
Its protein stability index is 3.29.

For CIQQILEAVLHCHQMGVVFRDLKP [H19F], which protein stability index is on record?
The protein stability index was 3.5.

With CIQQILEAVLHCHQMGVVGRDLKP [H19G] as the variant, how does the protein stability index read?
The protein stability index was 3.33.

Which protein stability index does the source give for CIQQILEAVLHCHQMGVVIRDLKP [H19I] here?
Its protein stability index is 2.01.

With CIQQILEAVLHCHQMGVVKRDLKP [H19K] as the variant, how does the protein stability index read?
Its protein stability index is 2.34.

For CIQQILEAVLHCHQMGVVLRDLKP [H19L], which protein stability index is on record?
The protein stability index was 1.9.

Which protein stability index does the source give for CIQQILEAVLHCHQMGVVMRDLKP [H19M] here?
Its protein stability index is 2.59.

With CIQQILEAVLHCHQMGVVRRDLKP [H19R] as the variant, how does the protein stability index read?
The protein stability index was 2.92.

With CIQQILEAVLHCHQMGVVSRDLKP [H19S] as the variant, how does the protein stability index read?
Its protein stability index is 2.53.

With CIQQILEAVLHCHQMGVVTRDLKP [H19T] as the variant, how does the protein stability index read?
The protein stability index was 3.67.

Which protein stability index does the source give for CIQQILEAVLHCHQMGVVWRDLKP [H19W] here?
Its protein stability index is 3.38.

Which protein stability index does the source give for CIQQILEAVLHCHQMGVVYRDLKP [H19Y] here?
The protein stability index was 2.79.

For CIQQILEAVLHCHQMGVVHCDLKP [R20C], which protein stability index is on record?
The protein stability index was 2.37.

Which protein stability index does the source give for CIQQILEAVLHCHQMGVVHDDLKP [R20D] here?
The protein stability index was 2.72.

Which protein stability index does the source give for CIQQILEAVLHCHQMGVVHEDLKP [R20E] here?
The protein stability index was 3.3.

Which protein stability index does the source give for CIQQILEAVLHCHQMGVVHFDLKP [R20F] here?
The protein stability index was 1.97.

Which protein stability index does the source give for CIQQILEAVLHCHQMGVVHGDLKP [R20G] here?
Its protein stability index is 2.37.

For CIQQILEAVLHCHQMGVVHIDLKP [R20I], which protein stability index is on record?
The protein stability index was 1.85.

Which protein stability index does the source give for CIQQILEAVLHCHQMGVVHKDLKP [R20K] here?
Its protein stability index is 2.66.

With CIQQILEAVLHCHQMGVVHLDLKP [R20L] as the variant, how does the protein stability index read?
The protein stability index was 2.54.

Which protein stability index does the source give for CIQQILEAVLHCHQMGVVHNDLKP [R20N] here?
Its protein stability index is 1.52.

With CIQQILEAVLHCHQMGVVHPDLKP [R20P] as the variant, how does the protein stability index read?
Its protein stability index is 1.77.

Which protein stability index does the source give for CIQQILEAVLHCHQMGVVHTDLKP [R20T] here?
The protein stability index was 3.37.

With CIQQILEAVLHCHQMGVVHWDLKP [R20W] as the variant, how does the protein stability index read?
Its protein stability index is 3.1.

Which protein stability index does the source give for CIQQILEAVLHCHQMGVVHYDLKP [R20Y] here?
Its protein stability index is 2.17.

With CIQQILEAVLHCHQMGVVHRALKP [D21A] as the variant, how does the protein stability index read?
The protein stability index was 4.17.

For CIQQILEAVLHCHQMGVVHRCLKP [D21C], which protein stability index is on record?
Its protein stability index is 2.86.

With CIQQILEAVLHCHQMGVVHRFLKP [D21F] as the variant, how does the protein stability index read?
The protein stability index was 2.97.

With CIQQILEAVLHCHQMGVVHRGLKP [D21G] as the variant, how does the protein stability index read?
Its protein stability index is 2.28.

For CIQQILEAVLHCHQMGVVHRHLKP [D21H], which protein stability index is on record?
Its protein stability index is 2.62.

Which protein stability index does the source give for CIQQILEAVLHCHQMGVVHRILKP [D21I] here?
The protein stability index was 3.1.

Which protein stability index does the source give for CIQQILEAVLHCHQMGVVHRKLKP [D21K] here?
Its protein stability index is 4.29.

Which protein stability index does the source give for CIQQILEAVLHCHQMGVVHRLLKP [D21L] here?
Its protein stability index is 3.01.

For CIQQILEAVLHCHQMGVVHRMLKP [D21M], which protein stability index is on record?
The protein stability index was 2.17.

Which protein stability index does the source give for CIQQILEAVLHCHQMGVVHRNLKP [D21N] here?
The protein stability index was 4.66.

Which protein stability index does the source give for CIQQILEAVLHCHQMGVVHRPLKP [D21P] here?
Its protein stability index is 2.07.

Which protein stability index does the source give for CIQQILEAVLHCHQMGVVHRQLKP [D21Q] here?
The protein stability index was 2.22.

Which protein stability index does the source give for CIQQILEAVLHCHQMGVVHRRLKP [D21R] here?
Its protein stability index is 2.75.

Which protein stability index does the source give for CIQQILEAVLHCHQMGVVHRSLKP [D21S] here?
Its protein stability index is 1.66.

Which protein stability index does the source give for CIQQILEAVLHCHQMGVVHRTLKP [D21T] here?
The protein stability index was 2.36.

With CIQQILEAVLHCHQMGVVHRWLKP [D21W] as the variant, how does the protein stability index read?
The protein stability index was 3.37.

With CIQQILEAVLHCHQMGVVHRDAKP [L22A] as the variant, how does the protein stability index read?
The protein stability index was 2.87.

With CIQQILEAVLHCHQMGVVHRDCKP [L22C] as the variant, how does the protein stability index read?
The protein stability index was 3.02.

With CIQQILEAVLHCHQMGVVHRDEKP [L22E] as the variant, how does the protein stability index read?
Its protein stability index is 2.96.

For CIQQILEAVLHCHQMGVVHRDFKP [L22F], which protein stability index is on record?
The protein stability index was 2.66.

With CIQQILEAVLHCHQMGVVHRDGKP [L22G] as the variant, how does the protein stability index read?
The protein stability index was 2.03.

With CIQQILEAVLHCHQMGVVHRDHKP [L22H] as the variant, how does the protein stability index read?
The protein stability index was 1.99.

For CIQQILEAVLHCHQMGVVHRDIKP [L22I], which protein stability index is on record?
The protein stability index was 3.05.

With CIQQILEAVLHCHQMGVVHRDKKP [L22K] as the variant, how does the protein stability index read?
The protein stability index was 2.53.

With CIQQILEAVLHCHQMGVVHRDNKP [L22N] as the variant, how does the protein stability index read?
Its protein stability index is 2.03.

Which protein stability index does the source give for CIQQILEAVLHCHQMGVVHRDPKP [L22P] here?
Its protein stability index is 1.82.

Which protein stability index does the source give for CIQQILEAVLHCHQMGVVHRDQKP [L22Q] here?
The protein stability index was 1.62.

With CIQQILEAVLHCHQMGVVHRDRKP [L22R] as the variant, how does the protein stability index read?
The protein stability index was 1.03.

With CIQQILEAVLHCHQMGVVHRDSKP [L22S] as the variant, how does the protein stability index read?
Its protein stability index is 2.34.

With CIQQILEAVLHCHQMGVVHRDTKP [L22T] as the variant, how does the protein stability index read?
The protein stability index was 3.01.

Which protein stability index does the source give for CIQQILEAVLHCHQMGVVHRDWKP [L22W] here?
The protein stability index was 2.28.

For CIQQILEAVLHCHQMGVVHRDYKP [L22Y], which protein stability index is on record?
Its protein stability index is 1.95.

Which protein stability index does the source give for CIQQILEAVLHCHQMGVVHRDLCP [K23C] here?
Its protein stability index is 3.94.

For CIQQILEAVLHCHQMGVVHRDLDP [K23D], which protein stability index is on record?
Its protein stability index is 3.12.

With CIQQILEAVLHCHQMGVVHRDLEP [K23E] as the variant, how does the protein stability index read?
The protein stability index was 2.61.

For CIQQILEAVLHCHQMGVVHRDLHP [K23H], which protein stability index is on record?
The protein stability index was 3.03.

Which protein stability index does the source give for CIQQILEAVLHCHQMGVVHRDLIP [K23I] here?
The protein stability index was 2.2.

For CIQQILEAVLHCHQMGVVHRDLLP [K23L], which protein stability index is on record?
Its protein stability index is 2.73.

With CIQQILEAVLHCHQMGVVHRDLNP [K23N] as the variant, how does the protein stability index read?
The protein stability index was 3.36.

With CIQQILEAVLHCHQMGVVHRDLPP [K23P] as the variant, how does the protein stability index read?
The protein stability index was 2.63.

Which protein stability index does the source give for CIQQILEAVLHCHQMGVVHRDLRP [K23R] here?
The protein stability index was 3.33.

For CIQQILEAVLHCHQMGVVHRDLSP [K23S], which protein stability index is on record?
The protein stability index was 1.65.

For CIQQILEAVLHCHQMGVVHRDLVP [K23V], which protein stability index is on record?
Its protein stability index is 1.76.
